For one substance, 结合MFI results are on record in CN106117361A.

In this assay the target is CD3 on Jurkat cells (Jurkat靶标细胞) (UniProt P07766). In words: flow cytometry, culture supernatant on Jurkat cells (negative control; TG1 background 132.03).
Chain of UniProt P07766 (P07766 23-207): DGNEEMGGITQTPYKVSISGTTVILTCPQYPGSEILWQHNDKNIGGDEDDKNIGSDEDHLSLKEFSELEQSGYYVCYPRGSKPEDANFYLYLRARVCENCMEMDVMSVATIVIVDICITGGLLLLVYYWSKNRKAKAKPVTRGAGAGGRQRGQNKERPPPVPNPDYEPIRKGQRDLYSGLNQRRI

The substance NC-sdAb(相同形式的非相关性sdAb) (VHH) came in with a 结合MFI of 115 MFI.
